# Measured values reported in US20110105394A1 (Novo Nordisk, published 2011).
# *1 amine or outer side, *2 acyl side, *3 side chain or, on linkers, in order; H or OH if unused. Bridges are numbered along the chain shown (N, C = ends). The star is where a group is joined. C20 diacid = O=C(O)CCCCCCCCCCCCCCCCCCC(=O)*; γGlu = O=C(O)[C@H](CCC(=O)[*:2])N[*:1]
# B1: N-alpha-[(S)-4-Carboxy-4-(19-carboxynonadecanoylamino)butyryl]-Glu-His-His-[His1,His17]-pramlintide (peptide)
# peptide: {C20 diacid-γGlu}-EHHHCNTATCATQRLANFLHHSSNNFGPILPPTNVGSNTY-NH2
# modifications: disulfide 5-10
# SMILES: CC[C@H](C)[C@H](NC(=O)[C@@H]1CCCN1C(=O)CNC(=O)[C@H](Cc1ccccc1)NC(=O)[C@H](CC(N)=O)NC(=O)[C@H](CC(N)=O)NC(=O)[C@H](CO)NC(=O)[C@H](CO)NC(=O)[C@H](Cc1c[nH]cn1)NC(=O)[C@H](Cc1c[nH]cn1)NC(=O)[C@H](CC(C)C)NC(=O)[C@H](Cc1ccccc1)NC(=O)[C@H](CC(N)=O)NC(=O)[C@H](C)NC(=O)[C@H](CC(C)C)NC(=O)[C@H](CCCNC(=N)N)NC(=O)[C@H](CCC(N)=O)NC(=O)[C@@H](NC(=O)[C@H](C)NC(=O)[C@@H]1CSSC[C@H](NC(=O)[C@H](Cc2c[nH]cn2)NC(=O)[C@H](Cc2c[nH]cn2)NC(=O)[C@H](Cc2c[nH]cn2)NC(=O)[C@H](CCC(=O)O)NC(=O)CC[C@H](NC(=O)CCCCCCCCCCCCCCCCCCC(=O)O)C(=O)O)C(=O)N[C@@H](CC(N)=O)C(=O)N[C@@H]([C@@H](C)O)C(=O)N[C@@H](C)C(=O)N[C@@H]([C@@H](C)O)C(=O)N1)[C@@H](C)O)C(=O)N[C@@H](CC(C)C)C(=O)N1CCC[C@H]1C(=O)N1CCC[C@H]1C(=O)N[C@H](C(=O)N[C@@H](CC(N)=O)C(=O)N[C@H](C(=O)NCC(=O)N[C@@H](CO)C(=O)N[C@@H](CC(N)=O)C(=O)N[C@H](C(=O)N[C@@H](Cc1ccc(O)cc1)C(N)=O)[C@@H](C)O)C(C)C)[C@@H](C)O
# B2: N-alpha-[(S)-4-Carboxy-4-(19-carboxynonadecanoylamino)butyryl]-Glu-His-His-[Arg1,Arg17]-pramlintide (peptide)
# peptide: {C20 diacid-γGlu}-EHHRCNTATCATQRLANFLRHSSNNFGPILPPTNVGSNTY-NH2
# modifications: disulfide 5-10
# SMILES: CC[C@H](C)[C@H](NC(=O)[C@@H]1CCCN1C(=O)CNC(=O)[C@H](Cc1ccccc1)NC(=O)[C@H](CC(N)=O)NC(=O)[C@H](CC(N)=O)NC(=O)[C@H](CO)NC(=O)[C@H](CO)NC(=O)[C@H](Cc1c[nH]cn1)NC(=O)[C@H](CCCNC(=N)N)NC(=O)[C@H](CC(C)C)NC(=O)[C@H](Cc1ccccc1)NC(=O)[C@H](CC(N)=O)NC(=O)[C@H](C)NC(=O)[C@H](CC(C)C)NC(=O)[C@H](CCCNC(=N)N)NC(=O)[C@H](CCC(N)=O)NC(=O)[C@@H](NC(=O)[C@H](C)NC(=O)[C@@H]1CSSC[C@H](NC(=O)[C@H](CCCNC(=N)N)NC(=O)[C@H](Cc2c[nH]cn2)NC(=O)[C@H](Cc2c[nH]cn2)NC(=O)[C@H](CCC(=O)O)NC(=O)CC[C@H](NC(=O)CCCCCCCCCCCCCCCCCCC(=O)O)C(=O)O)C(=O)N[C@@H](CC(N)=O)C(=O)N[C@@H]([C@@H](C)O)C(=O)N[C@@H](C)C(=O)N[C@@H]([C@@H](C)O)C(=O)N1)[C@@H](C)O)C(=O)N[C@@H](CC(C)C)C(=O)N1CCC[C@H]1C(=O)N1CCC[C@H]1C(=O)N[C@H](C(=O)N[C@@H](CC(N)=O)C(=O)N[C@H](C(=O)NCC(=O)N[C@@H](CO)C(=O)N[C@@H](CC(N)=O)C(=O)N[C@H](C(=O)N[C@@H](Cc1ccc(O)cc1)C(N)=O)[C@@H](C)O)C(C)C)[C@@H](C)O
# B3: N-alpha-[(S)-4-Carboxy-4-(19-carboxynonadecanoylamino)butyryl]-Glu-His-His-[Arg1,His17]-pramlintide (peptide)
# peptide: {C20 diacid-γGlu}-EHHRCNTATCATQRLANFLHHSSNNFGPILPPTNVGSNTY-NH2
# modifications: disulfide 5-10
# SMILES: CC[C@H](C)[C@H](NC(=O)[C@@H]1CCCN1C(=O)CNC(=O)[C@H](Cc1ccccc1)NC(=O)[C@H](CC(N)=O)NC(=O)[C@H](CC(N)=O)NC(=O)[C@H](CO)NC(=O)[C@H](CO)NC(=O)[C@H](Cc1c[nH]cn1)NC(=O)[C@H](Cc1c[nH]cn1)NC(=O)[C@H](CC(C)C)NC(=O)[C@H](Cc1ccccc1)NC(=O)[C@H](CC(N)=O)NC(=O)[C@H](C)NC(=O)[C@H](CC(C)C)NC(=O)[C@H](CCCNC(=N)N)NC(=O)[C@H](CCC(N)=O)NC(=O)[C@@H](NC(=O)[C@H](C)NC(=O)[C@@H]1CSSC[C@H](NC(=O)[C@H](CCCNC(=N)N)NC(=O)[C@H](Cc2c[nH]cn2)NC(=O)[C@H](Cc2c[nH]cn2)NC(=O)[C@H](CCC(=O)O)NC(=O)CC[C@H](NC(=O)CCCCCCCCCCCCCCCCCCC(=O)O)C(=O)O)C(=O)N[C@@H](CC(N)=O)C(=O)N[C@@H]([C@@H](C)O)C(=O)N[C@@H](C)C(=O)N[C@@H]([C@@H](C)O)C(=O)N1)[C@@H](C)O)C(=O)N[C@@H](CC(C)C)C(=O)N1CCC[C@H]1C(=O)N1CCC[C@H]1C(=O)N[C@H](C(=O)N[C@@H](CC(N)=O)C(=O)N[C@H](C(=O)NCC(=O)N[C@@H](CO)C(=O)N[C@@H](CC(N)=O)C(=O)N[C@H](C(=O)N[C@@H](Cc1ccc(O)cc1)C(N)=O)[C@@H](C)O)C(C)C)[C@@H](C)O
# B4: N-alpha-[(S)-4-Carboxy-4-(19-carboxynonadecanoylamino)butyryl]-Glu-His-Arg-[His1,His17]-pramlintide (peptide)
# peptide: {C20 diacid-γGlu}-EHRHCNTATCATQRLANFLHHSSNNFGPILPPTNVGSNTY-NH2
# modifications: disulfide 5-10
# SMILES: CC[C@H](C)[C@H](NC(=O)[C@@H]1CCCN1C(=O)CNC(=O)[C@H](Cc1ccccc1)NC(=O)[C@H](CC(N)=O)NC(=O)[C@H](CC(N)=O)NC(=O)[C@H](CO)NC(=O)[C@H](CO)NC(=O)[C@H](Cc1c[nH]cn1)NC(=O)[C@H](Cc1c[nH]cn1)NC(=O)[C@H](CC(C)C)NC(=O)[C@H](Cc1ccccc1)NC(=O)[C@H](CC(N)=O)NC(=O)[C@H](C)NC(=O)[C@H](CC(C)C)NC(=O)[C@H](CCCNC(=N)N)NC(=O)[C@H](CCC(N)=O)NC(=O)[C@@H](NC(=O)[C@H](C)NC(=O)[C@@H]1CSSC[C@H](NC(=O)[C@H](Cc2c[nH]cn2)NC(=O)[C@H](CCCNC(=N)N)NC(=O)[C@H](Cc2c[nH]cn2)NC(=O)[C@H](CCC(=O)O)NC(=O)CC[C@H](NC(=O)CCCCCCCCCCCCCCCCCCC(=O)O)C(=O)O)C(=O)N[C@@H](CC(N)=O)C(=O)N[C@@H]([C@@H](C)O)C(=O)N[C@@H](C)C(=O)N[C@@H]([C@@H](C)O)C(=O)N1)[C@@H](C)O)C(=O)N[C@@H](CC(C)C)C(=O)N1CCC[C@H]1C(=O)N1CCC[C@H]1C(=O)N[C@H](C(=O)N[C@@H](CC(N)=O)C(=O)N[C@H](C(=O)NCC(=O)N[C@@H](CO)C(=O)N[C@@H](CC(N)=O)C(=O)N[C@H](C(=O)N[C@@H](Cc1ccc(O)cc1)C(N)=O)[C@@H](C)O)C(C)C)[C@@H](C)O
# B5: N-alpha-[(S)-4-Carboxy-4-(19-carboxynonadecanoylamino)butyryl]-GluHis-His-[Arg1,His17,Gln21]-pramlintide (peptide)
# peptide: {C20 diacid-γGlu}-EHHRCNTATCATQRLANFLHHSSQNFGPILPPTNVGSNTY-NH2
# modifications: disulfide 5-10
# SMILES: CC[C@H](C)[C@H](NC(=O)[C@@H]1CCCN1C(=O)CNC(=O)[C@H](Cc1ccccc1)NC(=O)[C@H](CC(N)=O)NC(=O)[C@H](CCC(N)=O)NC(=O)[C@H](CO)NC(=O)[C@H](CO)NC(=O)[C@H](Cc1c[nH]cn1)NC(=O)[C@H](Cc1c[nH]cn1)NC(=O)[C@H](CC(C)C)NC(=O)[C@H](Cc1ccccc1)NC(=O)[C@H](CC(N)=O)NC(=O)[C@H](C)NC(=O)[C@H](CC(C)C)NC(=O)[C@H](CCCNC(=N)N)NC(=O)[C@H](CCC(N)=O)NC(=O)[C@@H](NC(=O)[C@H](C)NC(=O)[C@@H]1CSSC[C@H](NC(=O)[C@H](CCCNC(=N)N)NC(=O)[C@H](Cc2c[nH]cn2)NC(=O)[C@H](Cc2c[nH]cn2)NC(=O)[C@H](CCC(=O)O)NC(=O)CC[C@H](NC(=O)CCCCCCCCCCCCCCCCCCC(=O)O)C(=O)O)C(=O)N[C@@H](CC(N)=O)C(=O)N[C@@H]([C@@H](C)O)C(=O)N[C@@H](C)C(=O)N[C@@H]([C@@H](C)O)C(=O)N1)[C@@H](C)O)C(=O)N[C@@H](CC(C)C)C(=O)N1CCC[C@H]1C(=O)N1CCC[C@H]1C(=O)N[C@H](C(=O)N[C@@H](CC(N)=O)C(=O)N[C@H](C(=O)NCC(=O)N[C@@H](CO)C(=O)N[C@@H](CC(N)=O)C(=O)N[C@H](C(=O)N[C@@H](Cc1ccc(O)cc1)C(N)=O)[C@@H](C)O)C(C)C)[C@@H](C)O
# B6: N-alpha-[(S)-4-Carboxy-4-(19-carboxynonadecanoylamino)butyryl]-Glu-His-Arg-[Arg1,His17]-pramlintide (peptide)
# peptide: {C20 diacid-γGlu}-EHRRCNTATCATQRLANFLHHSSNNFGPILPPTNVGSNTY-NH2
# modifications: disulfide 5-10
# SMILES: CC[C@H](C)[C@H](NC(=O)[C@@H]1CCCN1C(=O)CNC(=O)[C@H](Cc1ccccc1)NC(=O)[C@H](CC(N)=O)NC(=O)[C@H](CC(N)=O)NC(=O)[C@H](CO)NC(=O)[C@H](CO)NC(=O)[C@H](Cc1c[nH]cn1)NC(=O)[C@H](Cc1c[nH]cn1)NC(=O)[C@H](CC(C)C)NC(=O)[C@H](Cc1ccccc1)NC(=O)[C@H](CC(N)=O)NC(=O)[C@H](C)NC(=O)[C@H](CC(C)C)NC(=O)[C@H](CCCNC(=N)N)NC(=O)[C@H](CCC(N)=O)NC(=O)[C@@H](NC(=O)[C@H](C)NC(=O)[C@@H]1CSSC[C@H](NC(=O)[C@H](CCCNC(=N)N)NC(=O)[C@H](CCCNC(=N)N)NC(=O)[C@H](Cc2c[nH]cn2)NC(=O)[C@H](CCC(=O)O)NC(=O)CC[C@H](NC(=O)CCCCCCCCCCCCCCCCCCC(=O)O)C(=O)O)C(=O)N[C@@H](CC(N)=O)C(=O)N[C@@H]([C@@H](C)O)C(=O)N[C@@H](C)C(=O)N[C@@H]([C@@H](C)O)C(=O)N1)[C@@H](C)O)C(=O)N[C@@H](CC(C)C)C(=O)N1CCC[C@H]1C(=O)N1CCC[C@H]1C(=O)N[C@H](C(=O)N[C@@H](CC(N)=O)C(=O)N[C@H](C(=O)NCC(=O)N[C@@H](CO)C(=O)N[C@@H](CC(N)=O)C(=O)N[C@H](C(=O)N[C@@H](Cc1ccc(O)cc1)C(N)=O)[C@@H](C)O)C(C)C)[C@@H](C)O
# Molecular target: T1, Amylin 3(a) receptor (human calcitonin receptor (CTa) with RAMP-3) (human) (UniProt P30988)
# T1 sequence (looked up) 1: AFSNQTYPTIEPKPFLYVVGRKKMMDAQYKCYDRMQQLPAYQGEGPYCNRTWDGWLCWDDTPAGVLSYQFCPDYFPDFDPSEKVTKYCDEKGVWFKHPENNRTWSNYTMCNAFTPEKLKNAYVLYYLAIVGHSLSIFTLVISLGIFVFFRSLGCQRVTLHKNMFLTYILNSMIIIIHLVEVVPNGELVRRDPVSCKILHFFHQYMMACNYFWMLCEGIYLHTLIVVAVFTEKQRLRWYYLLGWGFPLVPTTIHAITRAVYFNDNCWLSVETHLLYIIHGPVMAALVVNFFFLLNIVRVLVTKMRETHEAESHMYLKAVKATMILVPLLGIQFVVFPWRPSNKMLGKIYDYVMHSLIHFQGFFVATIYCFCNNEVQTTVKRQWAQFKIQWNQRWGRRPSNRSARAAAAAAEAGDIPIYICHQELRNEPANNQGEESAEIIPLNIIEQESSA
# T1 sequence (looked up) 2: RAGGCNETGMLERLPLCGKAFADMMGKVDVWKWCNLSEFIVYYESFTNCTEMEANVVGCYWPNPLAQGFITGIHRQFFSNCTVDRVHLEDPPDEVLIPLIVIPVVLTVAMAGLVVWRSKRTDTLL
# Assay: cell-based or functional assay
row,Binder,Potency Luciferase
1,B1,0.1 nM
2,B2,0.2 nM
3,B3,0.1 nM
4,B4,0.1 nM
5,B5,0.1 nM
6,B6,0.2 nM
